The text below walks through data of paper PMC11307329.

This data set concerns T1, XisF4 (native excisionase) (Pseudomonas aeruginosa PAO1), ORF:74e9b1d3.
T1 sequence: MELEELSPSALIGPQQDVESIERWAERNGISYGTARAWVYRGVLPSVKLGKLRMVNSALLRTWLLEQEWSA
The experiment in a line: EMSA. On the technique in general: In EMSA bound probe runs differently from free probe, usually more slowly.
Take “CGCGCAGACTGTATCGAAGTATTTCCGACGCCTGGCGTTCTGTGATCGATTCGGCTCGGTTGGAGTGCGCTGCCGCACGCTTTACAGCCGGACGGAGCGGGGCACCGGATCTACTGCAAAAGCTGATAGTTGTCTTCCCGGGTGACGGCGTTGCACGGTCCTGCGGCGTGCAACCCGGCCTGGGCGAAATACCGGCGGAGCGGACCAGGCTATCCCGTCGGAGGCGATGTCGCCGGGCTGCTGGCTTTCAAGGTTTCCCTTCGATGACCAGGAGCTACCCATG (double strand) [lasA promoter]”: the binding entry is reported as “binds”. Then “AGCTTTCATGAATCTCTCCGTTGATTATGTATAGGCCTAACGCCTGAACCTCAACAAGCACTTACCATGCCAAATATCAAACCGCGCCACGATCAAGGAAACTGGGTTCCTTTCTCGATGAGAGTCAAACTTAAAACGGACAGGATGTGACATTTTTTGACAGCTGGATTTCCTCGATTTGGCAGCCCCTGTTATCTGCGTTATAAGGCACCTCAATAGCCCTTCTGCGATTCCTTCCCCATG (double strand) [pilA promoter]”, with “binds”; and “CGGTCGCCTTGTTCATGAGAAAAGCCTTTTAAAACAGTGAGTTGCGCAATAATTTCAGCCGTACCTCTTTCGAGGTAGGGGCGCGCATCTAGGCACGGAACGGCCGGTATTTCATTGATTCCTATCAAATTTGCATAGGAACACCTTCCCTAGGCTCTCGCTGAACGCTGTCCGTGCAGAGAGTTTAGCC (double strand) [narL promoter]”, with “binds”. Consider “GCTCATTCCGTCACTATTCGTGGCATTAGCCATACGCAGCTAGAGAAATAATTACCCTGGAGAAATTATTTCCCCAAAGCCACGTCAGGGCAACTATTTCCCCGGAATAAATTTCTATATGAGCACGTCAGCCGATAGAGCAAGACTATTAATCAAGAAAATCGGCCCCAAAAAGGTCAGCCTTCACGGGGGCGATTACGAGAGATGGAAAAGCGTCAGCAAAGGCGCGATTCGCGTGAGCACGGAAGAAATCGACGTCCTAGTAAAAATTTTCCCTAATTACGCATTATGGATTGCAAG (double strand) [xisF4 promoter]”, for which the binding result is “binds”.
